Experimental data reported in patent publication US20250215058A1 (CHILDREN S MEDICAL CENTER, published 2025).

What was measured:
GST-Epx2 = GST-Epx2 (E. faecium, UniProt P08515 1-218 = GST); assay: GST pull-down from lysates of transfected HEK293 cells, anti-FLAG immunoblot
GST-Epx3 = GST-Epx3 (E. faecalis, UniProt P08515 1-218 = GST); assay: as above
GST-Epx3, sequence (P08515 1-218, tags or fused parts left off): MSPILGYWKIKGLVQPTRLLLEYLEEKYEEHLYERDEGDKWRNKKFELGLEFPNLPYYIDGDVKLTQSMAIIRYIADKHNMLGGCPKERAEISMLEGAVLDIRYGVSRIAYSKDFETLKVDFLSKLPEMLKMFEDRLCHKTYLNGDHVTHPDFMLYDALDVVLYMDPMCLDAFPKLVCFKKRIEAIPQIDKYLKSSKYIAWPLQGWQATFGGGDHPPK

GST-Epx2, sequence (P08515 1-218, tags or fused parts left off): as above

Row | Binder | binding result (GST-Epx2) | binding result (GST-Epx3)
1 | HLA-B (full length, FLAG-tagged, expressed in HEK293 cells) (receptor, also called HLA-B alone; not shown: triple-FLAG tag) MHC heavy: GSHSMRYFYTSVSRPGRGEPRFISVGYVDDTQFVRFDSDAASPREEPRAPWIEQEGPEYWDRNTQIYKAQAQTDRESLRNLRGYYNQSEAGSHTLQSMYGCDVGPDGRLLRGHDQYAYDGKDYIALNEDLRSWTAADTAAQITQRKWEAAREAEQRRAYLEGECVEWLRRYLENGKDKLERADPPKTHVTHHPISDHEATLRCWALGFYPAEITLTWQRDGEDQTQDTELVETRPAGDRTFQKWAAVVVPSGEEQRYTCHVQHEGLPKPLTLRWEPSSQSTVPIVGIVAGLAVLAVVVIGAVVAAVMCRRKSSGGKGGSYSQAACSDSAQGSDVSLTAEFGSGSGS | no binding | no binding
2 | HLA-C (full length, FLAG-tagged, expressed in HEK293 cells) (receptor, also called HLA-C alone; not shown: triple-FLAG tag) MHC heavy: CSHSMRYFDTAVSRPGRGEPRFISVGYVDDTQFVRFDSDAASPRGEPRAPWVEQEGPEYWDRETQKYKRQAQADRVSLRNLRGYYNQSEDGSHTLQRMSGCDLGPDGRLLRGYDQSAYDGKDYIALNEDLRSWTAADTAAQITQRKLEAARAAEQLRAYLEGTCVEWLRRYLENGKETLQRAEPPKTHVTHHPLSDHEATLRCWALGFYPAEITLTWQRDGEDQTQDTELVETRPAGDGTFQKWAAVVVPSGQEQRYTCHMQHEGLQEPLTLSWEPSSQPTIPIMGIVAGLAVLVVLAVLGAVVTAMMCRRKSSGGKGGSCSQAACSNSAQGSDESLITCKAEFGSGSGS | no binding | no binding
3 | HLA-A (full length, 3× FLAG tagged, expressed in HEK293 cells) (receptor, also called HLA-A alone; not shown: triple-FLAG tag) MHC heavy: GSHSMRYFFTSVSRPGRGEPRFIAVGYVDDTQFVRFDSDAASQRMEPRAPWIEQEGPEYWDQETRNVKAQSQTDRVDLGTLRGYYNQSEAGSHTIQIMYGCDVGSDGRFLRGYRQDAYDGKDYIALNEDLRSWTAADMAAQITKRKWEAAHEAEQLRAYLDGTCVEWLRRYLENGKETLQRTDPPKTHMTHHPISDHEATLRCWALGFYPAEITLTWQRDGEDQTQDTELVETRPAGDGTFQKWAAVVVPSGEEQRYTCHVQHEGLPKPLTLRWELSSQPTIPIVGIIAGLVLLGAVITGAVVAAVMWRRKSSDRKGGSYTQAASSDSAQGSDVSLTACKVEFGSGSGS | no binding | no binding
